The record followed here is IntAct's records for PubMed 25775511.

The labels stand for the following.
B1: Transducer of Cdc42-dependent actin assembly protein 2 homolog (Caenorhabditis elegans), Q9XUS7 (parent)
chain: MIPVSRFFTVQDPSNALLSYTQKGIDFFEKLGQFSKEKAAIEEEYSTKLRSLAKKYAKKSEEDDEILKSVSYTSSFNSFLQQLDQIATRHQTSAEHIRGGVVSYVASKTCQMRSSRKNAINDLKTINDKLEDQINEMCKSGKCYLKSFKDAENSYQKFYKADKNLEISRLELEKARALANARNEACELAKQDYSALVRKTNAEQKRYHVELLPVIFARLKAVDKECIADMRQVLQKIVSFDDSLADSTEECRKIMQREVGKIDAEGDAQLVLKSVEATIEQPAPFEIEDLGDPKNCDSRTNDSADGSGGKLLKSSPSKNRIIRNFLGILKEKEADEKPEASNNDQLMYTDKSKPAHVRLSCLRSKIRDMEKQLEQAIQGREGITRLQQAYYTNPQHGNPSACTEPLISYAKKIEKLKMDIHNLKEFYAMLEMSVEEGQERSFGGRDTPDTTRSMSGSSTNQSSSKTIEDVLSGEAGNSSSADDSSKNILRQLFTTPKRLISSPKTSKSSTPTPLRRRAEISSPKILRSSFSGAIRKSLSTPDSVKVETAVTVTALFEFAKSSAETMSIEQGEILLVLEHDHGDGWTRTKNCRKHNEESGFVPTSYLQFPQ

The variants in this assay derive from B1. Particulars: with cdc42_caeel cdc-42, Q05062.
Sequence of cdc42_caeel cdc-42, Q05062 (Q05062 whole entry): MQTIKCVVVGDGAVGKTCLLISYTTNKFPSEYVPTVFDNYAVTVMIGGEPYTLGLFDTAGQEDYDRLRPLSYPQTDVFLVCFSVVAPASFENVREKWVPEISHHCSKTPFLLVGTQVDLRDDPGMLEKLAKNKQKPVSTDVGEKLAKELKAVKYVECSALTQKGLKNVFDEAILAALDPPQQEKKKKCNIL
Regarding I413S, the “effect of a mutation on the interaction” value was “disrupting interaction strength”.
